Measured values reported in article PMC2175169 (The Journal of Cell Biology, 2000).

Biological target: authentic E1A 243R protein, purified from bacteria (adenovirus, UniProt P03255-2 1-243)
Assay: pull-down

B1: GST-p21 Δ1-80 (domain or fragment)
chain: TGPRRGRDELGGGRRPGTSPALLQGTAEEDHVDLSLSCTLVPRSGEQAEGSPGGPGDSQGRKRRQTSMTDFYHSKRRLIFSKRKP
- binding result: binds
